Measurements as given in the Human Domainome abundance scans (Beltran et al. 2025).

B1: Ubiquitin-protein ligase residues 30 to 86; numbered along this chain, Q05086 (parent)
chain: KHLIERYYHQLTEGCGNEACTNEFCASCPTFLRMDNNAAAIKALELYKINAKLCDPH

Variants of: B1
Assay: abundance fitness (aPCA) (normalised: wild type 0, dead -1); higher = more abundant; growth selection in yeast, the domain comes from the species named
Conditions: Homo sapiens

Abundance fitness of substitutions, site by site:
A26: I -0.097 | K 0.034 | L -0.143 | M -0.111 | P -0.876 | Q -0.156 | R -0.096 | S -0.047 | T -0.328 | V -0.156 | W -0.104 | Y -0.076
S27: A -0.072 | C -0.061 | D -0.131 | E -0.374 | F -0.349 | G -0.09 | H -0.196 | I -0.763 | K -0.06 | L -0.523 | M -0.112 | N -0.06 | P -0.711 | Q -0.179 | R -0.186 | T -0.113 | V -0.594 | W -0.772 | Y -0.441
C28: A -0.019 | D -0.171 | E -0.144 | F -0.031 | G -0.183 | I -0.276 | K -0.038 | L -0.217 | N -0.006 | P -0.475 | Q -0.128 | R -0.071 | S -0.064 | T -0.07 | V -0.151 | W -0.16 | Y -0.06
P29: A -0.118 | D -0.252 | E 0.03 | F -0.195 | G -0.088 | H -0.036 | I -0.122 | K -0.014 | L -0.149 | N -0.304 | Q -0.103 | R -0.061 | S -0.09 | V -0.156 | W -0.557 | Y -0.191
T30: A 0.018 | C -0.022 | D -0.071 | E -0.055 | G 0.025 | I -0.042 | K 0.012 | L -0.083 | M -0.153 | N -0.052 | P -0.097 | Q -0.048 | R 0.044 | S 0.016 | V -0.083 | W -0.006 | Y -0.216
F31: C -0.043 | E -0.124 | G -0.025 | H -0.013 | I -0.169 | M 0.057 | N 0.027 | P -0.185 | Q -0.098 | R -0.14 | T -0.023 | V -0.038 | W -0.188 | Y -0.06
L32: A 0.006 | C -0.082 | D -0.049 | F -0.239 | G -0.034 | H -0.093 | I -0.036 | K 0.081 | N 0.202 | P 0.148 | Q 0.043 | R -0.033 | S -0.053 | T 0.098 | V 0.009 | W -0.193 | Y -0.233
R33: A -0.099 | C -0.152 | D -0.245 | E -0.011 | F -0.415 | G 0.014 | H -0.109 | I -0.1 | K 0.033 | L -0.148 | M -0.145 | N -0.109 | P -0.017 | S -0.041 | T -0.025 | V -0.013 | W -0.294 | Y -0.19
M34: A -0.029 | E -0.053 | F -0.061 | G -0.117 | H -0.095 | I 0.054 | K -0.23 | L -0.002 | N -0.279 | P -0.042 | Q -0.074 | R -0.102 | S -0.042 | T -0.129 | V -0.023 | W -0.183 | Y -0.035
D35: A -0.067 | C -0.133 | E -0.026 | F -0.265 | G -0.039 | H -0.213 | I -0.177 | K -0.199 | L -0.091 | M -0.058 | N -0.094 | P -0.135 | Q -0.084 | R -0.095 | S -0.022 | T -0.112 | V -0.187 | W -0.308 | Y -0.333
N36: A -0.042 | C -0.019 | E 0.007 | F -0.046 | G -0.036 | H -0.152 | I -0.11 | K 0.013 | L -0.005 | M -0.181 | Q -0.005 | R 0.055 | S 0.044 | T -0.027 | V -0.03 | W -0.239 | Y -0.308
N37: A 0.018 | C -0.17 | D 0.044 | F -0.542 | H -0.075 | K -0.107 | M -0.186 | P -0.107 | Q -0.016 | R -0.086 | S -0.072 | T -0.015 | W -0.454
A38: C -0.083 | D -0.295 | E -0.108 | G -0.191 | H -0.19 | I -0.166 | K -0.044 | L 0.025 | M -0.164 | N -0.213 | P -0.006 | Q -0.106 | R 0.005 | T -0.07 | V 0.029 | W -0.142 | Y 0.08
A39: D -0.605 | E -0.393 | F -0.249 | G -0.084 | H -0.228 | I -0.085 | K -0.175 | L -0.096 | M -0.065 | N -0.242 | Q -0.317 | R -0.053 | T -0.065 | V -0.084 | W -0.375 | Y -0.239
A40: C 0.067 | D 0.025 | E 0.159 | F -0.194 | G 0.046 | I -0.242 | K -0.023 | L -0.083 | N 0.041 | P -0.171 | Q -0.015 | S 0.037 | T 0.08 | W -0.04 | Y -0.192
I41: A 0.012 | C -0.028 | D 0.024 | E 0.029 | G 0.001 | H 0.064 | K 0.08 | L -0.072 | M -0.053 | P -0.069 | Q 0.075 | R 0 | S 0.035 | T -0.013 | V 0.01 | W -0.239 | Y -0.123
K42: A -0.184 | C -0.282 | E -0.109 | F -0.408 | G -0.343 | H -0.109 | I -0.498 | L -0.211 | M -0.269 | N -0.198 | P -0.735 | Q -0.085 | R -0.023 | S -0.178 | T -0.157 | V -0.392 | W -0.293
A43: C -0.098 | D -0.856 | E -0.894 | F -1.06 | G -0.156 | H -0.987 | I -0.92 | K -0.242 | L -0.826 | M -0.321 | N -0.768 | P -0.467 | R -0.717 | S 0.027 | V -0.221 | W -0.989
L44: A 0.057 | C -0.032 | D 0.042 | F -0.122 | G 0.057 | H -0.096 | I 0.173 | K 0.108 | N 0.013 | P 0.059 | R 0.074 | S 0.051 | T 0.118 | V 0.017 | W -0.16 | Y 0.131
E45: A -0.087 | C -0.276 | D -0.199 | F -0.221 | G -0.069 | H -0.184 | K -0.129 | M -0.181 | N 0.11 | P -0.873 | Q -0.129 | R -0.064 | S -0.067 | T -0.288 | W -0.372 | Y -0.217
L46: A -0.107 | C -0.029 | D -0.389 | E -0.514 | F -0.063 | G -0.178 | H 0.035 | I -0.056
